Assay [1] addresses T1, interleukin 4 (IL4) (UniProt P05112 25-153).
T1 sequence (looked up): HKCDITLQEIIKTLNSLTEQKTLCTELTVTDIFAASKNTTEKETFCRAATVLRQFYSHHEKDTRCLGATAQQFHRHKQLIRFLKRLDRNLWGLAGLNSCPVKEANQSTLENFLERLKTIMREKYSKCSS
The experiment in a line: phage competition ELISA: Fab-phage incubated 2 h with serial dilutions of the antigen in solution, unbound phage captured on antigen-coated wells, anti-M13-HRP; IC50 = antigen concentration inhibiting 50% of phage binding. The procedure:
(§1) Fab displaying phage was first incubated with serial dilutions of the respective antigens in solution for 2 h, unbound phage was then briefly captured by antigen coated ELISA wells and detected with anti-M13 HRP conjugate. The concentration of antigen inhibiting 50% of phage binding to antigen coated well is calculated as IC₅₀. NB denotes no detectable binding of phage clone directly to the antigens coated wells.

Assay [2] deals with T2, interleukin 5 (IL5) (human, UniProt P05113 20-134).
T2 construct: also called human IL5 (R&D Systems)
T2 sequence (looked up): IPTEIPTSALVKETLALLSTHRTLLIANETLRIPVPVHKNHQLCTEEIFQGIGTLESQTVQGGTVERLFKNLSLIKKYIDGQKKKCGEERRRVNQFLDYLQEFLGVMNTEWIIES
The assay is described as above. How it is done: as §1

Assay [3] concerns the target T3, interleukin 13 (IL13) (UniProt P35225 35-146, limits assumed). The assay is described as follows: phage ELISA: direct binding of the phage clone to antigen-coated wells (NB = no detectable binding). In general terms: In an ELISA, binding on a coated surface is turned into a signal by an enzyme label.
Assay [4] concerns the target T3, interleukin 13 (IL13). The assay is described as follows: ELISA: human IgG1 at 250 nM on protein-coated wells, anti-Fc-HRP.
Assay [5] has as its target T2, interleukin 5 (IL5). The assay is described as above.
The target of assay [6] is T4, BSA (bovine, UniProt P02769).
T4 construct: negative control protein; also called irrelevant protein coated on ELISA wells
T4 sequence (P02769 25-607 limits assumed): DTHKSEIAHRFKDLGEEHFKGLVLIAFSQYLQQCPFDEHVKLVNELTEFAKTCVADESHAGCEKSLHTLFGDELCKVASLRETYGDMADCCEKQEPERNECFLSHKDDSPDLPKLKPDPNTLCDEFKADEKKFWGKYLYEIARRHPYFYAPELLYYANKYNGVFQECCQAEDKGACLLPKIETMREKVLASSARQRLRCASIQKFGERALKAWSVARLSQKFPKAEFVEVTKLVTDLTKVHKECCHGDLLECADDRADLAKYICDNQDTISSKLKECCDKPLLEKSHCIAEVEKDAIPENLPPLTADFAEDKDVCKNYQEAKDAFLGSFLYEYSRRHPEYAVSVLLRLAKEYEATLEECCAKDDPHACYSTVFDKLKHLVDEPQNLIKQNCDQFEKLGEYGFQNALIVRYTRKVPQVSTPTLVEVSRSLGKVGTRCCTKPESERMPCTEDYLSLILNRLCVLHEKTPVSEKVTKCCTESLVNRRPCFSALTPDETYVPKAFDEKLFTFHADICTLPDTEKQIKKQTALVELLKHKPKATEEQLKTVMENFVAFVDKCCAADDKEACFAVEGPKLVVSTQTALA
The description is as above.

Assay [7] concerns the target T5, HER2 ECD.
T5 construct: one of the irrelevant proteins; also called irrelevant protein coated on ELISA wells
The assay is described as above.

Assay [8] addresses T3, interleukin 13 (IL13). The experiment in a line: phage competition ELISA: Fab-phage incubated 2 h with serial dilutions of the antigen in solution, unbound phage captured on antigen-coated wells, anti-M13-HRP; IC50 = antigen concentration inhibiting 50% of phage binding. The procedure: as §1
In assay [9] the target is T2, interleukin 5 (IL5). The assay is described as follows: phage ELISA: direct binding of the phage clone to antigen-coated wells (NB = no detectable binding).
In assay [10] the target is T2, interleukin 5 (IL5). The experiment in a line: phage competition ELISA (phage IC50), soluble IL5 against IL5-coated wells. The procedure:
as §1
(§2) The relative affinity of each clone was assessed by phage IC₅₀ as above.

In assay [11] the target is T4, BSA. The assay is described as follows: ELISA: IgG at 100 nM on immobilized protein, anti-IgG-HRP [panel A].
The target of assay [12] is T5, HER2 ECD. Described as above.
For assay [13], the target named is T1, interleukin 4 (IL4). The experiment in a line: phage competition ELISA (phage IC50), soluble IL4 against IL4-coated wells. How it is done: as §1, §2
Assay [14] deals with T2, interleukin 5 (IL5). The experiment in a line: SPR (Biacore), Fab over CM5 chip with immobilized human IL5, 25 °C. A general note: Surface plasmon resonance follows binding to a sensor surface in real time, without labels.
Assay [15] concerns the target T2, interleukin 5 (IL5). The assay is described as follows: SPR, Fab over immobilized IL5.
The target of assay [16] is T1, interleukin 4 (IL4). The assay is described as follows: SPR (Biacore), Fab over CM5 chip with immobilized IL4, 25 °C.

T3 sequence (P35225 35-146 limits assumed): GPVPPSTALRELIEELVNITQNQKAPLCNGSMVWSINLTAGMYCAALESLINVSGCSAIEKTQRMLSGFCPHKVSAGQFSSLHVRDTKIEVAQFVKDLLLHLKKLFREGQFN

B1: B1, anti-IL4/IL5 dual specific variant of hu19C11, Fab displayed on phage (Fab, V domains shown)
VH: EVQLVQSGAEVKKPGASVKVSCKASGYTFTDYLMHWVRQAPGQGLEWIAVIVSITGRTYYADDFKGRVTITRDTSTSTAYLELSSLRSEDTAVYYCARGGIFYGMDYWGQGTLVTVSS
VL: DIQMTQSPSSLSASVGDRVTITCKASQSVINDAAWYQQKPGKAPKLLIYYTSHRYTGVPSRFSGSGSGTDFTLTISSLQEDFATYYCQQDYTPFPLTFGQGTKVEIKR
notes: also called clone B1
The IC50 is the concentration needed to halve the response being measured. Read a low IC50 as greater potency. For B1, the IC50 in the assay with interleukin 4 (IL4) [1] and in the assay with interleukin 5 (IL5) [2] was around 1000 nM throughout. For the same molecule, the binding result with interleukin 13 (IL13) [3] is on record as “no binding”.

B2: humanized antibody 19C11 (hu19C11) as IgG (antibody, V domains shown)
VH: EVQLVQSGAEVKKPGASVKVSCKASGYTFTDYSMHWVRQAPGQGLEWIVWINTETGEPTYADDFKGRVTITRDTSTSTAYLELSSLRSEDTAVYYCARGGIFYGMDYWGQGTLVTVSS
VL: DIQMTQSPSSLSASVGDRVTITCKASQSVINDAAWYQQKPGKAPKLLIYYTSHRYTGVPSRFSGSGSGTDFTLTISSLQEDFATYYCQQDYTSPWTFGQGTKVEIKR
notes: IgG; also called the antibody as IgG
In the case of B2, the binding result with interleukin 13 (IL13) [4], with interleukin 5 (IL5) [5], with BSA [6] and in the assay with HER2 ECD [7] was “no binding (tested: 250 nM)” throughout.

B3: F2, anti-IL4/IL13 dual specific variant of hu19C11, Fab displayed on phage (Fab, V domains shown)
VH: EVQLVQSGAEVKKPGASVKVSCKASGYTFTDYSMHWVRQAPGQGLEWIGIIFYTGHTYYADDFKGRVTITRDTSTSTAYLELSSLRSEDTAVYYCARGGIFYGMDYWGQGTLVTVSS
VL: DIQMTQSPSSLSASVGDRVTITCKASQSVINDAAWYQQKPGKAPKLLIYYTSHRYTGVPSRFSGSGSGTDFTLTISSLQEDFATYYCQQDYTSPWTFGQGTKVEIKR
Consider B3, for which the IC50 with interleukin 13 (IL13) [8] is around 1000 nM; with interleukin 4 (IL4) [1], 14.8 nM. Further, the binding result with interleukin 5 (IL5) [9] is “no binding”.

B4: F2 as human IgG1 (antibody, V domains shown)
VH: EVQLVQSGAEVKKPGASVKVSCKASGYTFTDYSMHWVRQAPGQGLEWIGIIFYTGHTYYADDFKGRVTITRDTSTSTAYLELSSLRSEDTAVYYCARGGIFYGMDYWGQGTLVTVSS
VL: DIQMTQSPSSLSASVGDRVTITCKASQSVINDAAWYQQKPGKAPKLLIYYTSHRYTGVPSRFSGSGSGTDFTLTISSLQEDFATYYCQQDYTSPWTFGQGTKVEIKR
As for B4, the binding result in the assay with interleukin 5 (IL5) [5], with BSA [6] and in the assay with HER2 ECD [7] was “no binding (tested: 250 nM)” throughout.

B5: E7, anti-IL4/IL5 dual specific variant of hu19C11, Fab displayed on phage (Fab, V domains shown)
VH: EVQLVQSGAEVKKPGASVKVSCKASGYTFTDYFIHWVRQAPGQGLEWIAGIVYDATGFTTYADDFKGRVTITRDTSTSTAYLELSSLRSEDTAVYYCARGGIFYGMDYWGQGTLVTVSS
VL: DIQMTQSPSSLSASVGDRVTITCKASQSVINDAAWYQQKPGKAPKLLIYYTSHRYTGVPSRFSGSGSGTDFTLTISSLQEDFATYYCQQDYTSPWTFGQGTKVEIKR
notes: also called clone E7
On to B5, for which the half-maximal inhibitory concentration (IC50) with interleukin 5 (IL5) [2] and with interleukin 5 (IL5) [10] was around 1000 nM each time. The binding result in the assay with interleukin 13 (IL13) [3] is recorded as “no binding”.

B6: 1C60, affinity-matured variant of E7, as IgG (antibody, V domains shown)
VH: EVQLVQSGAEVKKPGASVKVSCKASGYTFTDYFIHWVRQAPGQGLEWIAGIVYDATGFTVYADDFKGRVTITRDTSTSTAYLELSSLRSEDTAVYYCARGGIFYGMDYWGQGTLVTVSS
VL: DIQMTQSPSSLSASVGDRVTITCKASQSVINDAAWYQQKPGKAPKLLIYYTSHRYTGVPSRFSGSGSGTDFTLTISSLQEDFATYYCQQDYKHPWTFGQGTKVEIKR
Take B6: the binding result with BSA [11] and in the assay with HER2 ECD [12] was “no binding (tested: 100 nM)” throughout.

B7: F1, anti-IL4/IL13 dual specific variant of hu19C11, Fab displayed on phage (Fab, V domains shown)
VH: EVQLVQSGAEVKKPGASVKVSCKASGYTFTDYSMHWVRQAPGQGLEWIGVIFQSGATYYADDFKGRVTITRDTSTSTAYLELSSLRSEDTAVYYCARGGIFYGMDYWGQGTLVTVSS
VL: DIQMTQSPSSLSASVGDRVTITCKASQSVINDAAWYQQKPGKAPKLLIYYTSHRYTGVPSRFSGSGSGTDFTLTISSLQEDFATYYCQQDYTSPWTFGQGTKVEIKR
For B7, the IC50 with interleukin 13 (IL13) [8] is around 1000 nM; with interleukin 4 (IL4) [1], 22.3 nM. Also, in the assay with interleukin 5 (IL5) [9], the binding result is given as “no binding”.

B8: 1C36, affinity-matured variant of E7, as IgG (antibody, V domains shown)
VH: EVQLVQSGAEVKKPGASVKVSCKASGYTFTDYFIHWVRQAPGQGLEWIGGIVYDATGFTTYAEEFKGRVTITRDTSTSTAYLELSSLRSEDTAVYYCARGGIFYGMDYWGQGTLVTVSS
VL: DIQMTQSPSSLSASVGDRVTITCKASQSVINDAAWYQQKPGKAPKLLIYYTSHRYTGVPSRFSGSGSGTDFTLTISSLQEDFATYYCQQDYTHPWTFGQGTKVEIKR
Turning to B8, the binding result with BSA [11] and with HER2 ECD [12] was “no binding (tested: 100 nM)” each time.

B9: 1C.36 (Fab, V domains shown)
VH: EVQLVQSGAEVKKPGASVKVSCKASGYTFTDYFIHWVRQAPGQGLEWIGGIVYDATGFTTYAEEFKGRVTITRDTSTSTAYLELSSLRSEDTAVYYCARGGIFYGMDYWGQGTLVTVSS
VL: DIQMTQSPSSLSASVGDRVTITCKASQSVINDAAWYQQKPGKAPKLLIYYTSHRYTGVPSRFSGSGSGTDFTLTISSLQEDFATYYCQQDYTHPWTFGQGTKVEIKR
notes: same clone as m16 and m18, here in the phage format
B9: the IC50 is 2.1 nM in the assay with interleukin 4 (IL4) [13] and 0.9 nM with interleukin 5 (IL5) [10].

B10: 1C.60 (Fab, V domains shown)
VH: EVQLVQSGAEVKKPGASVKVSCKASGYTFTDYFIHWVRQAPGQGLEWIAGIVYDATGFTVYADDFKGRVTITRDTSTSTAYLELSSLRSEDTAVYYCARGGIFYGMDYWGQGTLVTVSS
VL: DIQMTQSPSSLSASVGDRVTITCKASQSVINDAAWYQQKPGKAPKLLIYYTSHRYTGVPSRFSGSGSGTDFTLTISSLQEDFATYYCQQDYKHPWTFGQGTKVEIKR
notes: same clone as m17 and m19, here in the phage format
In the case of B10, the values for the IC50 with interleukin 4 (IL4) [13] and in the assay with interleukin 5 (IL5) [10] were 1.1 nM and 3.67 nM, respectively.

B11: 1C60, affinity-matured variant of E7, purified as Fab (Fab, V domains shown)
VH: EVQLVQSGAEVKKPGASVKVSCKASGYTFTDYFIHWVRQAPGQGLEWIAGIVYDATGFTVYADDFKGRVTITRDTSTSTAYLELSSLRSEDTAVYYCARGGIFYGMDYWGQGTLVTVSS
VL: DIQMTQSPSSLSASVGDRVTITCKASQSVINDAAWYQQKPGKAPKLLIYYTSHRYTGVPSRFSGSGSGTDFTLTISSLQEDFATYYCQQDYKHPWTFGQGTKVEIKR
notes: Purified Fab for SPR
A word on the koff: it is the rate constant with which the complex falls apart. One may read the kon as the second-order rate constant of association. Read a low kon as slow association. Broadly, the Kd is a measure of binding affinity in units of concentration. Read a low Kd as higher affinity. In the assay with interleukin 5 (IL5) [14], B11 showed a koff of 0.000552 s⁻¹ and a kon of 12400 M⁻¹ s⁻¹. For the same molecule, in the assay with interleukin 5 (IL5) [15], binding was characterised by a dissociation constant (Kd) of 44.4 nM and the “fold improvement of affinity toward IL5 against E7” value is 20 fold. Besides, in the assay with interleukin 4 (IL4) [16], the Kd amounted to 4.9 nM, the koff was found to be 0.00342 s⁻¹ and the kon turned out to be 697000 M⁻¹ s⁻¹.

Values taken from patent US20160257744A1 (Genentech, published 2016).
